Assay [1] concerns the target T1, SARS-CoV-2 spike protein receptor binding domain (RBD), monomeric (SARS-CoV-2), P0DTC2.
Assay [2] addresses T1, SARS-CoV-2 spike protein receptor …. The source holds these as a separate data set.

B1: DNA-LCB (designed binder)
chain: CDKEWILQKIYEIMRLLDELGHAEASMRVSDLIYEFMKKGDERLLEEAERLLEEVER
modifications: not checked
In turn, B1 had a protein coverage in assay [1] of 71.6%. In assay [2], this molecule gave a Fluorescence (average) of 2.08e+07.
